Measured values: patent EP1730287B1 (Syngenta Participations AG, dated 2011)

Biological target: T1, NIM450 bait (first 450 amino acids of the NIM1 protein fused to the LexA DNA binding domain) (Arabidopsis, UniProt P0A7C2 1-202; P93002 1-450)
T1 construct: Truncated bait of the yeast two-hybrid screen
T1 sequence (looked up): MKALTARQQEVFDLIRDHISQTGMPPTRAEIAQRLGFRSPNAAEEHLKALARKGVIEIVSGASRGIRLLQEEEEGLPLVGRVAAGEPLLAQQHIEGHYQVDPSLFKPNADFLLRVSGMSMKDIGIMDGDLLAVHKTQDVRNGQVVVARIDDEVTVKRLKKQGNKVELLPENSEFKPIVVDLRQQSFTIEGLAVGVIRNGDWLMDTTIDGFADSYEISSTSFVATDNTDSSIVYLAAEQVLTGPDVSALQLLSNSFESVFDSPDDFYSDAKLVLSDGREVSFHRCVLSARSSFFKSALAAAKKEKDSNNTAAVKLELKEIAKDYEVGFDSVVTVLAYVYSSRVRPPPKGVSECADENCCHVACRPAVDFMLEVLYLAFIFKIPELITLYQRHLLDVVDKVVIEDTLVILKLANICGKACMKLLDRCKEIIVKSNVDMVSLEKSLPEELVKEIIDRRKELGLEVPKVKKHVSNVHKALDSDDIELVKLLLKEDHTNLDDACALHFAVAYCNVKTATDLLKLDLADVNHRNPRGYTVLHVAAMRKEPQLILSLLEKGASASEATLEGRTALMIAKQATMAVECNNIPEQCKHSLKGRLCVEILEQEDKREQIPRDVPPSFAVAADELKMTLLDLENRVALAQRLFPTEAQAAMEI
Experiment: yeast two-hybrid (LexA bait, B42 prey; Leu2 and LacZ reporters)

B1: NI16 clone (Arabidopsis NI16 cDNA clone from the pJG4-5 library, fused to the B42 transcriptional activation domain) (other, not shown: large carriers)
chain: MNNSLKKEERVEEDNGKSDGNRGKPSTEVVRTVTEEEVDEFFKILRRVHVATRTVAKVNGGVAEGELPSKKRKRSQNLGLRNSLDCNGVRDGEFDEINRVGLQGLGLDLNCKPEPDSVSLSL
notes: Prey of the yeast two-hybrid screen; also called NI16 protein
- binding result: no binding
